These results are taken from the supplement of paper PMC9112550, “Optimization of the antimicrobial peptide Bac7 by deep mutational scanning” (BMC Biology, 2022).
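Note: peptides expressed intracellularly from a pBAD plasmid library in pooled LB shake-flask culture, induced with 0.3% L-arabinose, DNA abundance read by NGS, three biological replicates, DESeq2 with apeglm shrinkage.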

The series relates to Escherichia coli TOP10. Description: shrunken log2 fold change of peptide-encoding DNA abundance (4.5 h post-induction vs induction); higher = less antimicrobial activity (less host growth inhibition). Conditions: time post-induction: 4.5 h; library: site-saturation at positions 5, 18, 19, 20.
As to RRIRNRPPRLPRPRPRPDFAPRP, the “shrunken log2 fold change” value was -0.0617.
As to RRIRWRPPRLPRPRPRPQSVPRP, the “shrunken log2 fold change” value was 0.119.
As for RRIRKRPPRLPRPRPRPTMLPRP, the “shrunken log2 fold change” value came out at 0.131.
Consider RRIRSRPPRLPRPRPRPYSWPRP, for which the “shrunken log2 fold change” value is -0.244.
Take RRIRMRPPRLPRPRPRPQQCPRP: the “shrunken log2 fold change” value was 0.143.
For RRIRFRPPRLPRPRPRPCDNPRP the value was -0.0843.
For RRIRTRPPRLPRPRPRPDSRPRP the value was -0.00822.
As to RRIRHRPPRLPRPRPRPKIDPRP, the “shrunken log2 fold change” value is -0.0926.
With RRIRRRPPRLPRPRPRPPSCPRP, the “shrunken log2 fold change” value stood at 0.301.
Under RRIRYRPPRLPRPRPRPFLKPRP stands -0.122; under RRIRCRPPRLPRPRPRPKATPRP, 0.0985; under RRIRIRPPRLPRPRPRPLDPPRP, -0.0309.
RRIRWRPPRLPRPRPRPLGGPRP: the “shrunken log2 fold change” value was found to be 0.253.
Under RRIRSRPPRLPRPRPRPKLSPRP stands 0.352.
RRIRVRPPRLPRPRPRPWHNPRP: the “shrunken log2 fold change” value is -0.49.
For RRIRYRPPRLPRPRPRPESWPRP, the “shrunken log2 fold change” value is -0.0403.
Turning to RRIRKRPPRLPRPRPRPEHCPRP, the “shrunken log2 fold change” value stood at 0.0607.
Under RRIRMRPPRLPRPRPRPTKVPRP stands 0.126; under RRIRARPPRLPRPRPRPWPHPRP, -0.0357; under RRIRKRPPRLPRPRPRPTWFPRP, 0.203.
Regarding RRIRSRPPRLPRPRPRPITKPRP, the “shrunken log2 fold change” value was -0.083.
With RRIRARPPRLPRPRPRPQEFPRP, the “shrunken log2 fold change” value is -0.0568.
In the case of RRIRARPPRLPRPRPRPFVMPRP, the “shrunken log2 fold change” value was -0.181.
For RRIRWRPPRLPRPRPRPFCLPRP the value was 0.0169; for RRIRSRPPRLPRPRPRPFAAPRP, 0.355.
Consider RRIRARPPRLPRPRPRPPCGPRP, for which the “shrunken log2 fold change” value was 0.443.
In the case of RRIRRRPPRLPRPRPRPCQIPRP, the “shrunken log2 fold change” value was -0.211.
In the case of RRIRYRPPRLPRPRPRPSPHPRP, the “shrunken log2 fold change” value was -0.49.
As for RRIRSRPPRLPRPRPRPHQRPRP, the “shrunken log2 fold change” value was -0.249.
Under RRIRFRPPRLPRPRPRPAQGPRP stands -0.00447; under RRIRYRPPRLPRPRPRPFTRPRP, -0.0174; under RRIRHRPPRLPRPRPRPEWGPRP, 0.209.
For the sequence RRIRCRPPRLPRPRPRPVPQPRP, the “shrunken log2 fold change” value came to 0.0921.
Under RRIRIRPPRLPRPRPRPRPAPRP stands 0.286; under RRIRNRPPRLPRPRPRPMIFPRP, -0.287; under RRIRFRPPRLPRPRPRPMQRPRP, 0.226.
On to RRIRTRPPRLPRPRPRPMMDPRP, for which the “shrunken log2 fold change” value is -0.141.
Consider RRIRCRPPRLPRPRPRPWWWPRP, for which the “shrunken log2 fold change” value was -0.1.
RRIRDRPPRLPRPRPRPFFRPRP: the “shrunken log2 fold change” value was -0.0152.
Regarding RRIRTRPPRLPRPRPRPHEEPRP, the “shrunken log2 fold change” value stood at 0.0127.
Take RRIRSRPPRLPRPRPRPHWTPRP: the “shrunken log2 fold change” value is -0.0566.
In the case of RRIRKRPPRLPRPRPRPYTLPRP, the “shrunken log2 fold change” value is 0.0187.
On to RRIRCRPPRLPRPRPRPDTVPRP, for which the “shrunken log2 fold change” value is -0.369.
RRIRIRPPRLPRPRPRPDEHPRP: the “shrunken log2 fold change” value was -0.272.
For RRIRDRPPRLPRPRPRPISWPRP, the “shrunken log2 fold change” value amounted to 0.0803.
With RRIRMRPPRLPRPRPRPLAWPRP, the “shrunken log2 fold change” value was found to be 0.219.
Consider RRIRYRPPRLPRPRPRPDMLPRP, for which the “shrunken log2 fold change” value is -0.0808.
RRIRGRPPRLPRPRPRPKFVPRP: the “shrunken log2 fold change” value is 0.458.
Take RRIRQRPPRLPRPRPRPHWVPRP: the “shrunken log2 fold change” value stood at 0.0288.
As to RRIRRRPPRLPRPRPRPRYCPRP, the “shrunken log2 fold change” value amounted to 0.216.
For RRIRARPPRLPRPRPRPFPLPRP the value was -0.0297.
On to RRIRLRPPRLPRPRPRPEIAPRP, for which the “shrunken log2 fold change” value was 0.167.
For RRIRIRPPRLPRPRPRPILQPRP the value was -0.146.
Consider RRIRWRPPRLPRPRPRPQRQPRP, for which the “shrunken log2 fold change” value stood at 0.123.
Under RRIRGRPPRLPRPRPRPMQTPRP stands 0.0492.
Take RRIRTRPPRLPRPRPRPVVHPRP: the “shrunken log2 fold change” value was -0.0314.
For the sequence RRIRNRPPRLPRPRPRPRVLPRP, the “shrunken log2 fold change” value stood at 0.0234.
As to RRIRQRPPRLPRPRPRPTDTPRP, the “shrunken log2 fold change” value was -0.339.
Consider RRIRNRPPRLPRPRPRPHWDPRP, for which the “shrunken log2 fold change” value is -0.136.
RRIRRRPPRLPRPRPRPWGSPRP: the “shrunken log2 fold change” value is -0.186.
Turning to RRIRIRPPRLPRPRPRPGEGPRP, the “shrunken log2 fold change” value turned out to be 0.38.
RRIRHRPPRLPRPRPRPHPKPRP: the “shrunken log2 fold change” value came out at 0.0027.
Turning to RRIRGRPPRLPRPRPRPMVYPRP, the “shrunken log2 fold change” value turned out to be 0.438.
Regarding RRIRDRPPRLPRPRPRPVKMPRP, the “shrunken log2 fold change” value was -0.0606.
RRIRHRPPRLPRPRPRPWKNPRP: the “shrunken log2 fold change” value is -0.187.
Regarding RRIRKRPPRLPRPRPRPSPPPRP, the “shrunken log2 fold change” value came to 0.305.
Regarding RRIRSRPPRLPRPRPRPVPLPRP, the “shrunken log2 fold change” value was -0.0843.
In the case of RRIRARPPRLPRPRPRPNWSPRP, the “shrunken log2 fold change” value was 0.225.
On to RRIRHRPPRLPRPRPRPCAFPRP, for which the “shrunken log2 fold change” value was -0.176.
For RRIRCRPPRLPRPRPRPPCHPRP the value was 0.3.
For RRIRWRPPRLPRPRPRPPIFPRP the value was 0.488.
As to RRIRIRPPRLPRPRPRPDNWPRP, the “shrunken log2 fold change” value was -0.128.
In the case of RRIRFRPPRLPRPRPRPQVSPRP, the “shrunken log2 fold change” value is -0.298.
As to RRIRMRPPRLPRPRPRPCKEPRP, the “shrunken log2 fold change” value was -0.00822.
Regarding RRIRHRPPRLPRPRPRPTIEPRP, the “shrunken log2 fold change” value is -0.0518.
For RRIRWRPPRLPRPRPRPNCNPRP, the “shrunken log2 fold change” value was -0.101.
Turning to RRIRKRPPRLPRPRPRPRYMPRP, the “shrunken log2 fold change” value is -0.334.
With RRIRIRPPRLPRPRPRPTEHPRP, the “shrunken log2 fold change” value is -0.449.
Consider RRIRSRPPRLPRPRPRPSWCPRP, for which the “shrunken log2 fold change” value is -0.132.
Under RRIRSRPPRLPRPRPRPDMSPRP stands -0.0189; under RRIRVRPPRLPRPRPRPRWCPRP, 0.295.
Under RRIRQRPPRLPRPRPRPFYEPRP stands -0.413; under RRIRHRPPRLPRPRPRPYPGPRP, -0.216; under RRIRVRPPRLPRPRPRPQWSPRP, -0.201.
On to RRIRARPPRLPRPRPRPMLCPRP, for which the “shrunken log2 fold change” value was 0.637.
On to RRIRVRPPRLPRPRPRPQVPPRP, for which the “shrunken log2 fold change” value is -0.205.
As for RRIRKRPPRLPRPRPRPETNPRP, the “shrunken log2 fold change” value amounted to 2.35.
Consider RRIRPRPPRLPRPRPRPLYWPRP, for which the “shrunken log2 fold change” value was -0.0211.
On to RRIRFRPPRLPRPRPRPINCPRP, for which the “shrunken log2 fold change” value is -0.257.
RRIRKRPPRLPRPRPRPMQKPRP: the “shrunken log2 fold change” value was -0.00412.
As for RRIRNRPPRLPRPRPRPMSRPRP, the “shrunken log2 fold change” value was -0.094.
RRIRCRPPRLPRPRPRPVALPRP: the “shrunken log2 fold change” value was determined as 0.0824.
With RRIRARPPRLPRPRPRPDWSPRP, the “shrunken log2 fold change” value was found to be 0.048.
As to RRIRHRPPRLPRPRPRPAGWPRP, the “shrunken log2 fold change” value came out at 0.449.
Take RRIRSRPPRLPRPRPRPRGIPRP: the “shrunken log2 fold change” value was -0.33.
Consider RRIRDRPPRLPRPRPRPETWPRP, for which the “shrunken log2 fold change” value came out at 0.0111.
Take RRIRPRPPRLPRPRPRPVWDPRP: the “shrunken log2 fold change” value came to 0.212.
In the case of RRIRSRPPRLPRPRPRPSRYPRP, the “shrunken log2 fold change” value is -0.148.
Under RRIRPRPPRLPRPRPRPATTPRP stands 0.0694.
Regarding RRIRSRPPRLPRPRPRPKAVPRP, the “shrunken log2 fold change” value stood at 0.255.
For RRIRWRPPRLPRPRPRPEVHPRP the value was -0.039; for RRIRHRPPRLPRPRPRPKVNPRP, -0.181.
For RRIRYRPPRLPRPRPRPMLVPRP the value was -0.176; for RRIRRRPPRLPRPRPRPLVKPRP, -0.179.
With RRIRCRPPRLPRPRPRPNVHPRP, the “shrunken log2 fold change” value is -0.532.
In the case of RRIRCRPPRLPRPRPRPVTFPRP, the “shrunken log2 fold change” value is -0.294.
For RRIRTRPPRLPRPRPRPECVPRP the value was 0.148; for RRIRTRPPRLPRPRPRPITRPRP, -0.0822; for RRIRTRPPRLPRPRPRPVDDPRP, -0.018.
For RRIRRRPPRLPRPRPRPVHLPRP, the “shrunken log2 fold change” value is -0.022.
In the case of RRIRWRPPRLPRPRPRPECAPRP, the “shrunken log2 fold change” value came to 0.852.
Regarding RRIRRRPPRLPRPRPRPEGRPRP, the “shrunken log2 fold change” value came to 0.89.
Turning to RRIRLRPPRLPRPRPRPQVRPRP, the “shrunken log2 fold change” value was 0.0635.
RRIRYRPPRLPRPRPRPMFWPRP: the “shrunken log2 fold change” value is -0.0534.
On to RRIRWRPPRLPRPRPRPCEIPRP, for which the “shrunken log2 fold change” value is -0.243.
With RRIRVRPPRLPRPRPRPPVGPRP, the “shrunken log2 fold change” value worked out at 0.375.
Consider RRIRHRPPRLPRPRPRPLWNPRP, for which the “shrunken log2 fold change” value was -1.07.
For RRIRHRPPRLPRPRPRPYWTPRP the value was 0.0019.
Under RRIRHRPPRLPRPRPRPTALPRP stands 0.0443; under RRIRRRPPRLPRPRPRPWYLPRP, -0.313.
Turning to RRIRHRPPRLPRPRPRPLQLPRP, the “shrunken log2 fold change” value is -0.213.
As to RRIRVRPPRLPRPRPRPQTPPRP, the “shrunken log2 fold change” value came to 0.546.
In the case of RRIRCRPPRLPRPRPRPGTKPRP, the “shrunken log2 fold change” value was -0.404.
As for RRIRRRPPRLPRPRPRPRLAPRP, the “shrunken log2 fold change” value was determined as 0.62.
On to RRIRHRPPRLPRPRPRPCQTPRP, for which the “shrunken log2 fold change” value is -0.0148.
